Earlier results in publication PMC5146272.

Columns and labels:
[1] = molecular target: U2AF35 UHM (Homo sapiens) (UniProt Q01081)
Raver1 (Homo sapiens) = Raver1 (Homo sapiens) (UniProt Q8IY67)
Chain of Raver1 (Homo sapiens) (Q8IY67 2-606): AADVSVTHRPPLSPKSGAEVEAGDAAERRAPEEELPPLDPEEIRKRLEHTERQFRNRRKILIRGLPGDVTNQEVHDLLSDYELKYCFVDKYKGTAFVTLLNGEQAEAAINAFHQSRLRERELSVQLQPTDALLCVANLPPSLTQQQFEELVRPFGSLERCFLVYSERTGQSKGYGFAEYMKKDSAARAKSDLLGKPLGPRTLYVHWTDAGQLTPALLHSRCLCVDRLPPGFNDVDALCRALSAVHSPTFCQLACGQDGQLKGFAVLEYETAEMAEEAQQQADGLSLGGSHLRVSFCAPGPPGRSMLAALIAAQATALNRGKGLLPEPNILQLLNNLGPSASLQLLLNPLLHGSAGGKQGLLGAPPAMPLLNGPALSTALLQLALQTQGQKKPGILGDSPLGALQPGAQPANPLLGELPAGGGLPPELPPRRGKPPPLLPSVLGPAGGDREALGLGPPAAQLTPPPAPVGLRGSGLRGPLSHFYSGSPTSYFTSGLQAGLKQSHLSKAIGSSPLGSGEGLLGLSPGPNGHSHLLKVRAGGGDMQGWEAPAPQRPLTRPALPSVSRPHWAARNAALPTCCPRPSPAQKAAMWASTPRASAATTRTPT

Chain of U2AF35 UHM (Homo sapiens) (Q01081 43-146, one chain of several): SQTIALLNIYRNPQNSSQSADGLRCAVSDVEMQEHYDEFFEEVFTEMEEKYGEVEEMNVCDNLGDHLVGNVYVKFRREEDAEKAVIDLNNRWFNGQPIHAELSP
Chain of PTB RRM (P26599 184-260): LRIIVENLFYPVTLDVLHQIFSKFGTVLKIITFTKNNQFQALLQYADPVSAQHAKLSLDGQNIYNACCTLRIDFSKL
Chain of U2AF65 PEP (P26368 85-112, one chain of several): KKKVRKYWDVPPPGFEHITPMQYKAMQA

Substance | Kd [1] | Kd (Raver1 (Homo sapiens))
U2AF65 PEP (from UniProt P26368) | 0.002 µM | 
PTB RRM (from UniProt P26599) |  | 100 µM
